According to article PMC6144507 (Molecular Pain, 2018):

Target: His-nNOS(1-299) (UniProt P29475-1 1-299)
Experiment: AlphaScreen or HTRF

His-nNOS(1-299), sequence (P29475 1-299): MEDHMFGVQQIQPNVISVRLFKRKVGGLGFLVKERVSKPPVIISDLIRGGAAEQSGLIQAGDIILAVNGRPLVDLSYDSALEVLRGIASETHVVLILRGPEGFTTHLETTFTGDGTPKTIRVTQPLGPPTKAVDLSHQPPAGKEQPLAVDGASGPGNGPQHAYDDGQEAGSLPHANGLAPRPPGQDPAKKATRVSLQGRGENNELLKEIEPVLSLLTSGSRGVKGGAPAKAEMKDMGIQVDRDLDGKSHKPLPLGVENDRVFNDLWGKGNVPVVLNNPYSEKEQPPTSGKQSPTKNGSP

GRKKRRQRRRYAGQWGESV [L-TAT-GESV]
IC50: 4.9 µM
